According to publication PMC5684140:

Molecular target: JMJD8-FLAG-HA (HeLa-JMJD8-FLAG-HA) (human) (UniProt Q96S16)
Experiment: SEC; gel filtration (Superdex 200) of total cell lysate of HeLa S3 cells stably expressing JMJD8-FLAG-HA; fractions immunoblotted with anti-FLAG

- stoichiometry N: 2
Substance: JMJD8-FLAG-HA (HeLa-JMJD8-FLAG-HA) (from UniProt Q96S16-1 24-264) (natural protein)
